Assay results reported in publication PMC6163455 (Biomolecules, 2018).

Tested on: CHO-K1 cells
Test: cell fractionation and anti-β-lactamase immunoblotting
Assay type: cell-based, Chinese hamster
Settings: 8 µM, 1.5 h at 37 °C, digitonin cytosol extraction, 4 µg aliquots, anti-β-lactamase antibody, Figure S1
Experimental: Supplementary Information
Supplementary Figures: β-Lactamase Tools for Establishing Cell Internalization and Cytosolic
Delivery of Cell Penetrating Peptides
Figure S1. Verification of cell penetrating peptides (CPP)-mediated β-lactamase internalization by immunoblotting. MW: molecular weight.
Aliquots (4 µg) of cytosolic and membrane soluble CHO-K1 cell fractions from β-lactamase assays were separated by sodium dodecyl sulfate–polyacrylamide gel electrophoresis (SDS-PAGE) through a 4-12% (w/v) polyacrylamide Bis-Tris gel, transferred to polyvinylidene difluoride (PVDF) membrane, and immunoblotted. β-lactamase conjugated (e.g., 1746_SpyT/SpyC_BLA) or fused (e.g., 1746_BLA recombinant) to 1746c27 and 1746 Phylomer cell penetrating peptides (CPPs) was detected in the cytosolic fraction to varying extents, while TAT-conjugated β-lactamase was predominantly detected in the membrane fraction of cell lysates. […]
delivered into the cytosol by the 1746 CPP. Internalization of unconjugated SpyC_BLA protein was not detected, either on its own (SpyC_BLA (no CPP)) or in the presence of 1746c27 peptide (1746c27, SpyC_BLA), illustrating there is no bystander uptake effect. […]
Aliquots of extracted fractions (4 µg) were separated through a 4–12% Bis-Tris gel (Invitrogen, Carlsbad, CA, USA). Protein expression in the fractions was detected using monoclonal anti-β- […]

B1: 1746_BLA: recombinant fusion of phylomer CPP 1746 with β-lactamase (protein)
chain: MASPLKPKKPKTQEKKKKQPPKPKKPKTQEKKKKQPPKPKRASSGSHHHHHHGATLEVLFQGPGGSHPETLVKVKDAEDQLGARVGYIELDLNSGKILESFRPEERFPMMSTFKVLLCGAVLSRIDAGQEQLGRRIHYSQNDLVEYSPVTEKHLTDGMTVRELCSAAITMSDNTAANLLLTTIGGPKELTAFLHNMGDHVTRLDRWEPELNEAIPNDERDTTTPAAMATTLRKLLTGELLTLASRQQLIDWMEADKVAGPLLRSALPAGWFIADKSGAGERGSRGIIAALGPDGKPSRIVVIYTTGSQATMDERNRQIAEIGASLIKHWQLGSASGTTGATSG
β-lactamase detected in cytosolic and membrane cell fractions (immunoblot): very strong signal in the cytosolic fractions
